The values below come from paper PMC7641770, “Novel polyadenylylation-dependent neutralization mechanism of the HEPN/MNT toxin/antitoxin system” (Nucleic Acids Research, 2020).

The data set “crystal structure” deals with the molecule itself. Briefly: crystal structure.
In data set [1] the target is T1, MntA antitoxin (SO_3165) of Shewanella oneidensis, untagged (Shewanella oneidensis, UniProt Q8ECH7 1-139).
T1 construct: also called MNT antitoxin; native MntA
Briefly: pull-down. To be noted: partners not purified.

Data set [2] concerns the molecule itself. Briefly: crystal structure; co-expressed complex purified (Superdex 200, 20 mM Tris pH 8.0, 150 mM NaCl), sitting drop vapor diffusion at 16°C; (HepT)6-(MntA)2 hetero-octamer.
The target of data set [3] is T1, MntA antitoxin (SO_3165) of Shewanella …. The description is as above. To be noted: both partners purified.
Data set [4] concerns the target MntA D39E,D41E (SO_3165) of Shewanella oneidensis, untagged (Shewanella oneidensis, UniProt Q8ECH7 1-139, D39E | D41E). The data set is described as follows: crystal structure. To be noted: both partners purified.

B1: HepT toxin (SO_3166) of Shewanella oneidensis, C-terminal His6 tag, polyadenylylated at Y104 by co-produced MntA (natural protein, UniProt Q8ECH6 1-133, looked up)
chain: MNDIIINKIATIKRCIKRIQQVYGDGSQFKQDFTLQDSVILNLQRCCEACIDIANHINRQQQLGIPQSSRDSFTLLAQNNLITQPLSDNLKKMVGLRNIAVHDYQELNLDIVVHVVQHHLEDFEQFIDVIKAE
notes: also called HEPN toxin; modified HepT
As for B1, the binding result (in the data set “crystal structure”; in data set [1]) was “binds” in each case.

B2: HepT Y104A (SO_3166) of Shewanella oneidensis, C-terminal His6 tag (natural protein, UniProt Q8ECH6 1-133, looked up)
chain: MNDIIINKIATIKRCIKRIQQVYGDGSQFKQDFTLQDSVILNLQRCCEACIDIANHINRQQQLGIPQSSRDSFTLLAQNNLITQPLSDNLKKMVGLRNIAVHDAQELNLDIVVHVVQHHLEDFEQFIDVIKAE
notes: also called unmodified HepT^Y104A
As to B2, the binding result in data set [2] and in data set [3] was “binds” throughout.

B3: HepT toxin (SO_3166) of Shewanella oneidensis, C-terminal His6 tag, unmodified (co-produced with an inactive MntA variant) (natural protein, UniProt Q8ECH6 1-133, looked up)
chain: MNDIIINKIATIKRCIKRIQQVYGDGSQFKQDFTLQDSVILNLQRCCEACIDIANHINRQQQLGIPQSSRDSFTLLAQNNLITQPLSDNLKKMVGLRNIAVHDYQELNLDIVVHVVQHHLEDFEQFIDVIKAE
notes: also called unmodified HepT
With B3, in data set [4], the binding result is reported as “binds”.
